This data set can be described thus: label from the status in PepcDB records.
With “MELKHGYYHLIAILTVAIWGLTFISTKVLINHGLTPQEIFFYRFLIAYLGIWVISPKRLFTNNWQDELWLVAGGIFGGSLYFFTENTALGITQASNVSFIICTAPLLTTILSLLFYKSEKASKGLIYGSLLALMGVGLIVFNGSFVLKISPIGDLLTLLAALSWAFYSLIIKKMAGRYPTIFITRKIFFYGVLTILPAFLLHPLHPDTAVLLQPAVLFNLLFLAVLASLICYVLWNVVLKQLGTVRASNYIYLNPLVTMIASFLILDEKITLVALGGAACIVCGVYWAEKK”, the protein production entry is listed as “failed”. The same measure for “MELKNKKLSLWEAVSMAVGVMIGASIFSIFGVGAKIAGRNLPETFILSGIYALLVAYSYTKLGAKIVSNAGPIAFIHKAIGDNIITGALSILLWMSYVISIALFAKGFAGYFLPLINAPINTFNIAITEIGIVAFFTALNFFGSKAVGRAEFFIVLVKLLILGLFIFAGLITIHPSYVIPDLAPSAVSGMIFASAIFFLSYMGFGVITNASEHIENPKKNVPRAIFISILIVMFVYVGVAISAIGNLPIDELIKASENALAVAAKPFLGNLGFLLISIGALFSISSAMNATIYGGANVAYSLAKDGELPEFFERKVWFKSTEGLYITSALGVLFALLFNMEGVASITSAVFMVIYLFVILSHYILIDEVGGRKEIVIFSFIVVLGVFLLLLYYQWITNRFVFYGIIATFIGVLIFEIIYRKVTKRTFSNNMYVKS”: “not failed”; for “MELKVWVDGVQRIVCGVTEVTTCQEVVIALAQAIGRTGRYTLIEKWRDTERHLAPHENPIISLNKWGQYASDVQLILRRTGP”: “not failed”.

Consider “MELLRPEATVLSLGRRVLSFDREGRPYHYFREGKTYKRALDGSLHLRYREGERRRRRLAPEEALGVYQEVLDLAEAHLRDERRREEVLRWTPEGLLDPTPYRRAYAWPVSILPPDAYLSVVLQATTGCTWNRCAFCSFYQDRPFQKRTPEAFREHIQAVLALLGRGRLLRRGVFLADGNALALSEPLLPLLELVRAHFPGEPVMGFLDLFTGLKKAPSWWERLGGMGLRRVYIGLETGHAPLLALLRKPGHPKEVLPLVRALKAAGLSVGVILMVGAGGKAFAEAHFRESLALLAELPLGRGDVVYLSPFREDPGTPYAALGLAPLEDLEGELQRWAQAVRRLGLRASRYEIREFLY”, for which the protein production entry is reported as “failed”. On to “MELLSIVIFGLLIVVSPSADFVLVFKNSAMHSRKAGMLTAIGIGAGVCVHISYSIIGISQLIANNAGLFSLVKYVGAAYLIYIGIAGLLSAKLTLDYGTQLIKPVENRKYIMQGFLCNVLNPKTMIFFLSVFSQLISSHSDSLAFVISYGVYIAVLHGIWFCIVAYLVTSAKATRVLKRFGHRINQACGVGLITFGVILSTND”, for which the protein production entry is “failed”. Regarding “MELMKKFTSYTCSPIFVVVACAICLLVGFSINSSIIEIFASVMGIINVWLLSREKVSNFIFGIITVVAYLYIYYNTGLYALAVLACFQVGFNIFGWYYWVKNSDQEDNVVTSGLTKKGQILWTIIILAAWAVWGYVEINILHAQNAILDSLTAVLGLVAQYWLSKKLYENWILWILSNILFIIIYILNGYYVMLILVAIQLILSISGLLEWYASFKEQGENKLTL”, the protein production entry is recorded as “failed”. “MELNAVKSSYARWAPIYDKTFGAITNVGRHAAVDYINAHDATELLEVGVGTGLSLPNYRPGLKVTGIDFSEEMLAKARAKVESLGLGHVQSLRQMDARDLDFADASFDVVAAMHIISVVPEPERVMAEMARVCKPGGLIVITNHFARDSGMLARVERFAAPFANLLGWHPDFEISSVLKQPDLTVIERKSLPPMGMMTFLVLQKCELEHHHHHH”: the protein production entry is reported as “not failed”. The result for “MELNAVKSSYARWAPIYDKTFGAITNVGRHAAVDYINAHDATELLEVGVGTGLSLPNYRPGLKVTGIDFSEEMLAKARAKVESLGLGHVQSLRQMDARDLDFADASFDVVAAMHIISVVPEPERVMAEMARVCKPGGLIVITNHFARDSGMLARVERFAAPFANLLGWHPDFEISSVLKQPLEHHHHHH” reads “failed”. Take “MELQHGQQRHIFEIRLFPEFDKAGMLKSILSVDRDVTATRQGERLLAEENEVLEMIAGNHPLPQTLEQICQMMESQQPGSMCSVLLLEEDGQSLRFAAGLSLPPAYRKLSERVAVGPSVGSCGTAAHWKRTIVVDDIQTSPLWAHALHKVQPFGLRACWSMPIFSSDRQLLGTLATYYREPRSPSQEELALAQRITRIIAIALQRDGHEKQLYRLATQDGLTELNNRRQFIELADREIERSRRHGSRMSVLMMDLDHFKDINDHYGHAVGDEVIRHFSQVCREVLRASDLCGRLGGEEFAAVLPDTGLDDARQVAERLRSLASSARLSAVSGSLGYTVSIGVAERHADETDIDEVLGRADKQLYQAKRDGRNRVSGAAPAHCG”: the protein production entry is reported as “failed”.

For the origin of these results see a protein production outcome set (Wang et al. 2014).
